Data as given in patent US20180245061A1, “Modified Heterocyclase” (THE UNIVERSITY COURT OF THE UNIVERSITY OF ABERDEEN, priority 2014, published 2018).
Numbering of substitutions follows the chain as printed.

Tests used:
PatE' C51A = target: T1, PatE' C51A; experiment: X-ray co-crystal structures LynD/ATP/PatE'C51A (2.14 A) and LynD/beta,gamma-imido-ATP/PatE'C51A (3.01 A)
T1 peptide: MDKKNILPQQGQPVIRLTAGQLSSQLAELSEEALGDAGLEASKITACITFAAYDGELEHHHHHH

[1] = target: the molecule itself; experiment: X-ray crystal structures; gel filtration suggested a dimer
[2] = target: T2, PatE' (precursor peptide PatE variant, 64 amino acids, full leader, single core peptide ITACITFC, C-terminal …); experiment: ITC, 20 C, one-site model with stoichiometry set to 1; LynD in the cell, peptide in the syringe
T2 peptide: T1 peptide with A51C

PatE' E32R [3] = target: T3, PatE' E32R; experiment: as above
T3 construct: Point mutant of PatE'
T3 peptide: T1 peptide with E32R, A51C

PatE' L29R = target: T4, PatE' L29R; experiment: ITC, 20 C
T4 construct: Point mutant of PatE'
T4 peptide: T1 peptide with L29R, A51C

PatE' E31R = target: T5, PatE' E31R; experiment: ITC, 20 C
T5 construct: Point mutant of PatE'
T5 peptide: T1 peptide with E31R, A51C

PatE' L26R = target: T6, PatE' L26R; experiment: ITC, 20 C
T6 peptide: T1 peptide with L26R, A51C

[4] = target: T7, full-length PatE'4 leader peptide (tryptic fragment of PatE' D2Y, K3E, K4E, R16E)
T7 chain: T1 peptide with D2Y, K3E, K4E, R16E, A51C

[5] = target: T8, minimal leader LAELSEEAL synthetic peptide
T8 chain: LAELSEEAL

PatE′ [6] = experiment: ITC substrate peptide binding: PatE′; conditions: 10 μM enzyme, 150 μM peptide, 20° C.
PatE′, sequence (as listed by the source): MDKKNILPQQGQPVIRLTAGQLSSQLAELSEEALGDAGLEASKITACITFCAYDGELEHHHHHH
Description: (§1) ITC experiments were performed using a VP-ITC instrument (MicroCal) in heterocyclization reaction buffer (150 mM NaCl, 10 mM HEPES pH7.4, 1 mM TCEP) supplemented with 5 mM MgCl2. For substrate binding experiments a cell solution of 10 μM LynD (and mutants) and a syringe solution of 150 μM PatE′ (and mutants) was prepared by diluting protein and peptide with the buffer used for dialysis. For nucleotide binding experiments, the cell concentration was increased to 20 μM, and the ATP/AMP concentration in the syringe solution was 300 μM. Substrate, and ATP experiments were performed at 20° C., and AMP experiments at 25° C. Cell and syringe solutions were degassed for 15 min at 18 and 23° C. Titration method was as follows: one injection of 2 μl followed by injections of 5 μl at 0.5 μl/min, with a delay of 4 min between every injection. The stirring speed was 307 rpm throughout. Raw data was processed using MicroCal Origin software, and the baseline was adjusted and the integrations limits were selected manually. Data was non-linearly fitted to the one-site model (Origin) setting the stoichiometry to 1.

[7] = target: T2, PatE' (precursor peptide PatE variant, …); experiment: ITC, 20 C
PatE′ E31R = experiment: ITC substrate peptide binding: PatE′ E31R; conditions: 10 μM enzyme, 150 μM peptide, 20° C.
PatE′ E31R, sequence (as listed by the source, stated change not applied): as the sequence (as listed by the source) above, with E31R counted along it
Description: as §1

PatE′ [8] = experiment: Heterocyclization reaction with PatE′, MS analysis; type: biochemical; conditions: 5 mM ATP, 5 mM MgCl2, 16 h at 37° C.; for No. of heterocycles, peptide PatE′: 2 μM enzyme, TABLE 2
Description: (§2) For all heterocyclization reactions, […] PatE′ (and variants,) was incubated with 2 μM enzyme in 150 mM NaCl, 10 mM HEPES pH 7.4, 1 mM TCEP, 5 mM ATP and 5 mM MgCl2 for 16 h at 37° C. Samples were analyzed by ESI or MALDI MS (LCT, Micromass or 4800 MALDI TOF/TOF Analyzer, ABSciex). For cis trans activation studies, 100 μM ITACITFCAYDG synthetic test peptide (Peptide Protein Research Ltd) was reacted with 5 μM heterocyclase enzyme in the presence and absence of 5.5 μM LAELSEEAL synthetic peptide, or 5.5 μM full-length PatE′4 leader peptide. The reaction was carried out in 150 mM NaCl, 10 mM HEPES pH 7.4, 1 mM TCEP, 5 mM ATP and 5 mM MgCl2 for 16 h at 37° C. and analyzed as above. Synthetic peptides were purchased from Peptide Protein Research Ltd.

[9] = target: T2, PatE' (precursor peptide PatE variant, …); experiment: ITC, 20 C, one-site model with stoichiometry set to 1; LynD mutant in the cell, peptide in the syringe
PatE' E32R [10] = target: T3, PatE' E32R; experiment: as above
PatE′ E32R = experiment: Heterocyclization reaction with PatE′ E32R; type: biochemical; conditions: 2 μM enzyme, 5 mM ATP, 5 mM MgCl2, 16 h at 37° C.
PatE′ E32R, sequence (as listed by the source, stated change not applied): as the sequence (as listed by the source) above, with E32R counted along it
Description: as §2

full-length PatE = experiment: Heterocyclization of full length PatE substrate (core sequence ITVCISVC), MALDI-TOF-MS; type: biochemical; conditions: MALDI-TOF-MS (FIG. 9)
Excerpt: Reaction Zoomed view with reaction products identified. The mass of the starting material is 6983.8 Da.

PatE′ L26R [11] = experiment: Heterocyclization reaction with PatE′ L26R; type: biochemical; conditions: 2 μM enzyme, 5 mM ATP, 5 mM MgCl2, 16 h at 37° C.
PatE′ L26R, sequence (as listed by the source, stated change not applied): as the sequence (as listed by the source) above, with L26R counted along it
Description: as §2

PatE′ L29R = experiment: ITC substrate peptide binding: PatE′ L29R; conditions: 10 μM enzyme, 150 μM peptide, 20° C.
PatE′ L29R, sequence (as listed by the source, stated change not applied, one chain of several): as the sequence (as listed by the source) above, with L29R counted along it
Description: as §1

PatE′ L26R [12] = experiment: ITC substrate peptide binding: PatE′ L26R; conditions: 10 μM enzyme, 150 μM peptide, 20° C.
Description: as §1

B1: LynD heterocyclase, full-length (Lyngbya sp. PCC 8106) (enzyme)
chain: MQSTPLLQIQPHFHVEVIEPKQVYLLGEQANHALTGQLYCQILPLLNGQYTLEQIVEKLDGEVPPEYIDYVLERLAEKGYLTEAAPELSSEVAAFWSELGIAPPVAAEALRQPVTLTPVGNISEVTVAALTTALRDIGISVQTPTEAGSPTALNVVLTDDYLQPELAKINKQALESQQTWLLVKPVGSVLWLGPVFVPGKTGCWDCLAHRLRGNREVEASVLRQKQAQQQRNGQSGSVIGCLPTARATLPSTLQTGLQFAATEIAKWIVKYHVNATAPGTVFFPTLDGKIITLNHSILDLKSHILIKRSQCPTCGDPKILQHRGFEPLKLESRPKQFTSDGGHRGTTPEQTVQKYQHLISPVTGVVTELVRITDPANPLVHTYRAGHSFGSATSLRGLRNTLKHKSSGKGKTDSQSKASGLCEAVERYSGIFQGDEPRKRATLAELGDLAIHPEQCLCFSDGQYANRETLNEQATVAHDWIPQRFDASQAIEWTPVWSLTEQTHKYLPTALCYYHYPLPPEHRFARGDSNGNAAGNTLEEAILQGFMELVERDGVALWWYNRLRRPAVDLGSFNEPYFVQLQQFYRENDRDLWVLDLTADLGIPAFAGVSNRKTGSSERLILGFGAHLDPTIAILRAVTEVNQIGLELDKVPDENLKSDATDWLITEKLADHPYLLPDTTQPLKTAQDYPKRWSDDIYTDVMTCVNIAQQAGLETLVIDQTRPDIGLNVVKVTVPGMRHFWSRFGEGRLYDVPVKLGWLDEPLTEAQMNPTPMPF
notes: also called native LynD; cyanobactin heterocyclase LynD
Question: What does the source list for B1?
Answer: binding result (PatE' C51A): binds; binding result [1]: binds; Kd [2]: 1.49 µM; Kd (PatE' E32R [3]): 18.4 µM; binding result (PatE' L29R): no binding; binding result (PatE' E31R): no binding; binding result (PatE' L26R): no binding; acceleration of the turnover of the test peptide […] (trans activation, MALDI TOF MS time course) [4]: 6.7- and 5.0-fold, respectively; acceleration of the turnover of the test peptide […] (trans activation, MALDI TOF MS time course) [5]: 6.7- and 5.0-fold, respectively

B2: LynD R74E (enzyme)
chain: B1 chain with R74E
notes: Point mutant of LynD
Question: How did the “KD (μM), peptide PatE′” value (PatE′ [6]) turn out when B2 was run?
Answer: Its value is “no binding”.

Question: Does B2 bind [7]?
Answer: Result: no binding

Question: Does B2 bind (PatE' E31R)?
Answer: Result: no binding

Question: And the “KD (μM), peptide PatE′ E31R” value (PatE′ E31R)?
Answer: The value was “no binding”.

Question: What about the “No. of heterocycles, peptide PatE′” value (PatE′ [8]) of the same molecule?
Answer: The value was 2.

B3: LynD R399E (enzyme)
chain: B1 chain with R399E
notes: Point mutant of LynD
Question: With B3 as the molecule, how does the Kd [9] read?
Answer: Its Kd is 10.7 µM.

Question: What about the Kd (PatE' E32R [10]) of the same molecule?
Answer: Its Kd is 8.55 µM.

Question: What about the “No. of heterocycles, peptide PatE′ E32R” value (PatE′ E32R) of the same molecule?
Answer: The value was 2.

Question: What about the “No. of heterocycles, peptide PatE′” value (PatE′ [8]) of the same molecule?
Answer: Its value is 2.

B4: MicD-Q21-5G: fused-MicD: leader from Q21, 5 GA repeats linker, KL, MicD (SEQ ID NO: 40) (protein)
chain: MSHHHHHHDYDENLYFQGSQLSSQLAELSEEALGDAGAGAGAGAGAKLMQSTPLLQIQPHFHVEVIEPKQVYLLGEQANYALTGQLYCQILPLLDGQHSREQIVEKLDGEVPSEYIDYVLDRLAEKGYLTEAAPELSSEVAAFWSELGIAPPVAAEALRQSVTLTPVGNISEVTVAALTTALRDIGISVQTPTEAGSPTALNVVLTDDYLQPELAKINKQALESQQTWLLVKPVGSVLWLGPVFVPGKTGCWDCLAHRLRGNREVEASVLQQKQAQQQRNGQSGSVIGCLPTARATLPSTLQTGLQFAATEIAKWIVKHHVKATAPGTVFFPTLDGKIITFNHTVIDLKSHVLVRRSQCPSCGDRQILHRQGFEPVKLVSRRKHFTHDGGHRAFTPEQTVQKYQHLVSPITGVVTELVRLTDPANPLVHTYKAGHAFGSATTLRGLRNTLKYKSSGKGKTDIQSRASGLCEAIERYSGIFQGDEPRKRATLAELGDLALHPESLLYFSNTQYANREELNAQGSAAAYRWIPNRFDVSQAIDWTPVWSLTEQKHKYVPTAFCYYGYPLPEEQRFCKADSNGNAAGNTLEEAILQGFLELVERDSIAMWWYNRIRRPAVDLSTFDEPYFVDLQQFYQQQNRELWVLDVTADLGIPAFAGFSRRTVGTSERISIGFGAHLDPTIAILRALTEVSQVGLELDKIPDDKLDGESKDWMLNVTVENHPWLAPDPSVPMKTASDYPKRWSDDIHTDVMNCVKTAQTAGLEVMVLDQTRPDIGLNVVKVIIPGMRTFWTRFGQGRLYDIPVKLGWLDAPLAEEELNQTNIPF
modifications: Modified heterocyclase MicroD_Q21_5GA
Question: How did the “heterocyclization of full-length PatE” value (full-length PatE) turn out when B4 was run?
Answer: Its value is “inefficiently and produce a mixture of different heterocyclic species”.

B5: LynD: full-length cyanobactin heterocyclase LynD (Lyngbya sp. PCC 8106), SEQ ID NO: 1 (protein)
chain: B1 chain
modifications: Lyngbya sp. PCC 8106
Question: What does the source list for B5?
Answer: No. of heterocycles, peptide PatE′ E32R (PatE′ E32R): 2; No. of heterocycles, peptide PatE′ L26R (PatE′ L26R [11]): 2; KD (μM), peptide PatE′ L29R (PatE′ L29R): no binding; KD (μM), peptide PatE′ L26R (PatE′ L26R [12]): no binding; KD (μM), peptide PatE′ E31R (PatE′ E31R): no binding; No. of heterocycles, peptide PatE′ (PatE′ [8]): 2; No. of heterocycles (PatE′) (PatE′ [8]; PatE′ with 2 μM enzyme, TABLE 1): 2
